This note sets out measurements from publication doi:10.1101/2020.11.17.386581 (bioRxiv, 2020).

This test deals with recombinant human tau 2N4R (as used in SPR) (human, UniProt P10636-8 1-441). In words: SPR. (In SPR one partner is held on a chip, and binding of the other changes the refractive index at the surface.)

B1: Recombinant human SORL1 aa 82-753 protein (domain or fragment, UniProt Q92673 82-753, looked up)
chain: SAALQPEPIKVYGQVSLNDSHNQMVVHWAGEKSNVIVALARDSLALARPKSSDVYVSYDYGKSFKKISDKLNFGLGNRSEAVIAQFYHSPADNKRYIFADAYAQYLWITFDFCNTLQGFSIPFRAADLLLHSKASNLLLGFDRSHPNKQLWKSDDFGQTWIMIQEHVKSFSWGIDPYDKPNTIYIERHEPSGYSTVFRSTDFFQSRENQEVILEEVRDFQLRDKYMFATKVVHLLGSEQQSSVQLWVSFGRKPMRAAQFVTRHPINEYYIADASEDQVFVCVSHSNNRTNLYISEAEGLKFSLSLENVLYYSPGGAGSDTLVRYFANEPFADFHRVEGLQGVYIATLINGSMNEENMRSVITFDKGGTWEFLQAPAFTGYGEKINCELSQGCSLHLAQRLSQLLNLQLRRMPILSKESAPGLIIATGSVGKNLASKTNVYISSSAGARWREALPGPHYYTWGDHGGIITAIAQGMETNELKYSTNEGETWKTFIFSEKPVFVYGLLTEPGEKSTVFTIFGSNKENVHSWLILQVNATDALGVPCTENDYKLWSPSDERGNECLLGHKTVFKRRTPHATCFNGEDFDRPVVVSNCSCTREDYECDFGFKMSEDLSLEVCVPDPEFSGKSYSPPVPCPVGSTYRRTRGYRKISGDTCSGGDVEARLEGELVPCP
The term Kd denotes the free concentration of one partner at which half of the binding sites on the other are occupied at equilibrium, for simple one-to-one binding. B1: the Kd turned out to be 41 ± 9 nM.
